Data published in patent US20260248897.

Tests used:
[1] = biological target: RBD of SARS-CoV-2 (B lineage), P0DTC2
RBD of hCoV-229E, P15423 = biological target: T1, RBD of hCoV-229E, P15423
T1 chain: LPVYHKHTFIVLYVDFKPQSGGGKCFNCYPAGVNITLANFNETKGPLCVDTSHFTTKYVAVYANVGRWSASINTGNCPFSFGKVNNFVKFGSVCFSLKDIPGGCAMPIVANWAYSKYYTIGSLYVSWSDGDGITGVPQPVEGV

B1: gene recombinant of human P5 (protein disulfide isomerase family A member 6) (protein)
chain: MGSSHHHHHHSSGLVPRGSHMLYSSSDDVIELTPSNFNREVIQSDSLWLVEFYAPWCGHCQRLTPEWKKAATALKDVVKVGAVDADKHHSLGGQYGVQGFPTIKIFGSNKNRPEDYQGGRTGEAIVDAALSALRQLVKDRLGGRSGGYSSGKQGRSDSSSKKDVIELTDDSFDKNVLDSEDVWMVEFYAPWCGHCKNLEPEWAAAASEVKEQTKGKVKLAAVDATVNQVLASRYGIRGFPTIKIFQKGESPVDYDGGRTRSDIVSRALDLFSDNAPPPELLEIINEDIAKRTCEEHQLCVVAVLPHILDTGAAGRNSYLEVLLKLADKYKKKMWGWLWTEAGAQSELETALGIGGFGYPAMAAINARKMKFALLKGSFSEQGINEFLRELSFGRGSTAPVGGGAFPTIVEREPWDGRDGELPVEDDIDLSDVELDDLGKDEL
disulfide bond cleavage activity (remaining rate of native RBD; maleimide-PEG 2k, SDS-PAGE) [1]: The order of the disulfide bond cleavage activity of the RBD from highest to lowest was PDI, ERp46, P5, ERp72, and ERp57.
disulfide bond cleavage activity (remaining rate of native RBD; maleimide-PEG 2k, SDS-PAGE) (RBD of hCoV-229E, P15423): The order of the disulfide bond cleavage activity of the RBD of hCoV-229E from highest to lowest was PDI, ERp46, P5, Erp57, and ERp72.

B2: gene recombinant of human ERp72 (protein disulfide isomerase family A member 4) (protein)
chain: MGSSHHHHHHSSGLVPRGSHEGPDEDSSNRENAIEDEEEEEEEDDDEEEDDLEVKEENGVLVLNDANFDNFVADKDTVLLEFYAPWCGHCKQFAPEYEKIANILKDKDPPIPVAKIDATSASVLASRFDVSGYPTIKILKKGQAVDYEGSRTQEEIVAKVREVSQPDWTPPPEVTLVLTKENFDEVVNDADIILVEFYAPWCGHCKKLAPEYEKAAKELSKRSPPIPLAKVDATAETDLAKRFDVSGYPTLKIFRKGRPYDYNGPREKYGIVDYMIEQSGPPSKEILTLKQVQEFLKDGDDVIIIGVFKGESDPAYQQYQDAANNLREDYKFHHTFSTEIAKFLKVSQGQLVVMQPEKFQSKYEPRSHMMDVQGSTQDSAIKDFVLKYALPLVGHRKVSNDAKRYTRRPLVVVYYSVDFSFDYRAATQFWRSKVLEVAKDFPEYTFAIADEEDYAGEVKDLGLSESGEDVNAAILDESGKKFAMEPEEFDSDTLREFVTAFKKGKLKPVIKSQPVPKNNKGPVKVVVGKTFDSIVMDPKKDVLIEFYAPWCGHCKQLEPVYNSLAKKYKGQKGLVIAKMDATANDVPSDRYKVEGFPTIYFAPSGDKKNPVKFEGGDRDLEHLSKFIEEHATKLSRTKEEL
disulfide bond cleavage activity (remaining rate of native RBD; maleimide-PEG 2k, SDS-PAGE) [1]: The order of the disulfide bond cleavage activity of the RBD from highest to lowest was PDI, ERp46, P5, ERp72, and ERp57.
disulfide bond cleavage activity (remaining rate of native RBD; maleimide-PEG 2k, SDS-PAGE) (RBD of hCoV-229E, P15423): The order of the disulfide bond cleavage activity of the RBD of hCoV-229E from highest to lowest was PDI, ERp46, P5, Erp57, and ERp72.

B3: gene recombinant of human ERp57 (protein disulfide-isomerase like protein ERp57) (protein)
chain: MGSSHHHHHHSSGLVPRGSHMLESDVLELTDDNFESRISDTGSAGLMLVEFFAPWCGHCKRLAPEYEAAATRLKGIVPLAKVDCTANTNTCNKYGVSGYPTLKIFRDGEEAGAYDGPRTADGIVSHLKKQAGPASVPLRTEEEFKKFISDKDASIVGFFDDSFSEAHSEFLKAASNLRDNYRFAHTNVESLVNEYDDNGEGIILFRPSHLTNKFEDKTVAYTEQKMTSGKIKKFIQENIFGICPHMTEDNKDLIQGKDLLIAYYDVDYEKNAKGSNYWRNRVMMVAKKFLDAGHKLNFAVASRKTFSHELSDFGLESTAGEIPVVAIRTAKGEKFVMQEEFSRDGKALERFLQDYFDGNLKRYLKSEPIPESNDGPVKVVVAENFDEIVNNENKDVLIEFYAPWCGHCKNLEPKYKELGEKLSKDPNIVIAKMDATANDVPSPYEVRGFPTIYFSPANKKLNPKKYEGGRELSDFISYLQREATNPPVIQEEKPKKKKKAQEDL
disulfide bond cleavage activity (remaining rate of native RBD; maleimide-PEG 2k, SDS-PAGE) [1]: The order of the disulfide bond cleavage activity of the RBD from highest to lowest was PDI, ERp46, P5, ERp72, and ERp57.
disulfide bond cleavage activity (remaining rate of native RBD; maleimide-PEG 2k, SDS-PAGE) (RBD of hCoV-229E, P15423): The order of the disulfide bond cleavage activity of the RBD of hCoV-229E from highest to lowest was PDI, ERp46, P5, Erp57, and ERp72.
